This experiment deals with BTN3A1 full intracellular domain (human). The experiment in a line: ITC; nanoITC; 300 μM BTN2A1 ID271 titrated into a mixture of 60 μM BTN3A1 BFI and 120 μM 4-M-HMBPP; independent fit (NanoAnalyze).

This is an account of results in PMC10665462.

Turning to “BTN2A1 intracellular domain (domain or fragment)”, the KD with 4-M-HMBPP was determined as 190 µM, the N with 4-M-HMBPP was 0.08 and the dH with 4-M-HMBPP is -23.9 kcal/mol.
